Assay results taken from the DeepSol protein solubility set.

Assay: soluble on expression in E. coli; label from the status in PepcDB or PDB records

| Sequence | soluble on expression in E. coli |
| --- | --- |
| LLELLLLTSELYPDPVLPALSLLPHTVRTAPAEASSLLEAGNADAVLVDARNDLSSGRGLCRLLSSTGRSIPVLAVVSEGGLVAVSADWGLDEILLLSTGPAEIDARLRLVVGRRGDLADQESLGKVSLGELVIDEGTYTARLRGRPLDLTYKEFELLKYLAQHAGRVFTRAQLLHEVWGYDFFGGTRTVDVHVRRLRAKLGPEHEALIGTVRNVGYKAVRPARGRPPAADPDDEDADPGRDGMQEPLVDPLRSQ | not soluble |
| LLLNLFNFRNFKDLFRNDINMMTVEEILYNEIKEFQASDRRAWMVIGDRYYRCENDILNRRIVRHTESGDIEDRSKANNRLAHGFVKNLVDEKIGYLLTKDYSLKCDNKEYIEKVKNVLGKYFQYTLTRLGYEASNKGIAWLQVYINEQGKFGMMIIPAEQCVPLWKDNTHTELYGMIRYYVQTVYEGKEKKQITRVEYYTDKEVYFYVLDNDHLIPDIEQYEGGPILHYKKGEEGRSWGKVPFIAWKNNHLEYPDVKFIKSLVDAYDKSRSEIDNFIEETKNLIYVLKGYGGENLSDFMKDLNYYRAIKIDDPEHGGVDTLTPKIDIQAAKEHFEQLKRDINEFGQGVPKDLDKYGNSPSGTALKFLYSGLDLKCNHLEVEFRQSFNQLLYFVNRYLAENGQGNYENENVELIFNRDIQINETETINNCVNSKGIISDETILANHPWVSDVEEELKQIEKERKSEEPPMFGEGDEE | soluble |
| LLQTMLSMTSHGPAQVFTERYQLIVQPLGLSQQVEKDSLDLLADYLHGFALSISCCHDASLIKTDMLDGPLKLICSSLLASRT | not soluble |
| LLTPQYISEAKIYVLSKETTLTSLADLQMGTQLTQDYKELIGSRPVMQEVINTLNLDITYRQLAEKLKLENPKDTRILYLTVTDPNPYMAKAIVDEIANAASDYIGEIMEMTPPKLIEDGMVATVQTSPNVKKN | not soluble |
| LMPTERIDINEREDCTASEMTAPTVPVALVTGAAKRLGRSIAEGLHAEGYAVCLHYHRSAAEANALSATLNARRPNSAITVQADLSNVATAPVSGADGSAPVTLFTRCAELVAACYTHWGRCDVLVNNASSFYPTPLLRNDEDGHEPCVGDREAMETATADLFGSNAIAPYFLIKAFAHRVAGTPAKHRGTNYSIINMVDAMTNQPLLGYTIYTMAKGALEGLTRSAALELAPLQIRVNGVGPGLSVLVDDMPPAVWEGHRSKVPLYQRDSSAAEVSDVVIFLCSSKAKYITGTCVKVDGGYSLTRA | soluble |
| LNAAMNLKREFVHRVQRFVVNPIGRQLPMTMLETIGRKTGQPRRTAVGGRVVDNQFWMVSEHGEHSDYVYNIKANPAVRVRIGGRWRSGTAYLLPDDDPRQRLRGLPRLNSAGVRAMGTDLLTIRVDLD | soluble |
| LPDGIEEVLPPEAARIEVARRQVLDLFQSWGYEFVVTPHIEYLESLLTGAGSDLDLRTFKVIDPQSGRQMGFRADITPQVARIDAHTLKREGPSRLCYAGSVLHAQPRALSSSRSPIQLGAELYGDASPSSDVEVISLMLAMLQLADVPDVHMDLGHVGIYRGLARAAGLSGEVEQQLFDALQRKAIDEVVALTANLPPELASMLRALVDLCGGREVLDAARDRLAGAPAPVLEALDDLLAIADRLAARFPQLPLYFDLGELRGYHYHTGVVFAVFVPGVGQSIAQGGRYDDIGADFGRARPATGFSTDLKTLVTLGQAEIVL | not soluble |
| LPFDGIVTKNIVSELSDILTGARIEKIYQPEPDEIIINLRTKGQNLKLLLSANASYPRIHLTDVTKENPINPPVFCMLLRKHLSGGKITKIDFHDFERVVTIHIETIDELGDLTFKKLVVEIMGKHSNIILVNNENKIIDSIKHVDSDISRVREVMPARPYTLPPGQDKINPLELDIDLLFSKAKEQGDPRISKFFLNNIKGFSPLLCEEICHRADVDPRLPVSSLSEDTIQNLKKVLKEIISKIENSEFTPCIIWNGDDRQKAVDFHSLEIKQYNTVDFYPSISRVLDLFYTIKDTSERLAQKKADLAKILNNCIDRCNKKISIHMDTLREVAEREKFKLYGELITANIYCIPKNASKVSLLNYYSENGEYVEVPLDENLLPQENAQRYFKKYAKAKAAYIHATQQLEEARGELSYLESVLHSLENSNSFEDIDDIRQELAEQGYLPSKKKRPEKKNSKNFTPYTYKSTDGFYIYVGKNNVQNDFLTLKFASSNDIWLHTKNIPGSHVIIRKDRGEIPDSTLFQAAMLAAYHSKAKNSSHVEVDYTKVKNVKKPNGAKPGMVIYDNYKTIIVTPDENVVNNLRMENR | soluble |
| LPLCDSLIIWLQTFKTASPCQDVKQLTNGVTMAQVLHQIDVAWFSESWLSRIKDDVGDNWRIKASNLKKVLHGITSYYHEFLGQQISEELIPDLNQITECADPVELGRLLQLILGCAVNCEKKQEHIKNIMTLEESVQHVVMTAIQELMSK | soluble |
| LQEPMYVYSHDGLLIAIFGEIRRYPVQIKEVPEQLKQAFLATEDARFYEHSGIDYKGIARAIWLLATTNEKRVPGGSTITQQVARQFFLNSEYSYKRKLAEILLARKIESQLKKDEILELYLNKSFFGNRAYGIAAAAEFYYGKKLNELNLDEMASLAGIPKFPSS | not soluble |
| LREQVQDLFNKKYGEALGIKYPVQVPYKRIKSNPGSVIIEGLPPGIPFRKPCTFGSQNLERILAVADKIKFTVTRPFQGLIPKPDE | soluble |
| LRRTALNGRFCRLEPLDVDRHAADLFAAYALGDNSDWTWLASTRPESVTATAHWIAGKVNDDVLVPYAVVDLRSEQAVGIVSYMAIEREMGTVEIGHVTWSRRMKNTPLGTEAVWLLLKNGFDHGYRRLEWKCDSMNVASRRAAERLGFSWEGRLRQRLVRKGRTRDSDMLSIIDGEWPARD | not soluble |
| LRVRKAIIPAAGLGTRFLPATKAQPKEMLPIVDKPTIQYIVEEAIKSGIEDIIIISGRSKRAIEDHFDKSYELEQELEKKGNHDLLKLVQDISNLANIHYIRQKEAKGLGHAIYCAKSFIGNEPFAVLLGDDIVDSEVPCIKQLMDVYDKYRTTVLGVQKVPEDQVSKYGIVGGEIVSDRVYKVKDLVEKPDTASAPSNIAILGRYIITPRIFDYLENAKPGKGGEIQLTDALRELMGEEEMYAYDFIGKRYDVGNKLGFLQATVEFALARDDLKEEFEAYLKEIICKL | soluble |
| LSESDRGASCAPIGAIADAVKSGKVGSCVNNEYDVPGGKVEDFVSGRAYWSPSTGAHALYGRINARYSEMGGPQSWLGFPISSEFAIKDNARVVQFQNGNIYWSPQRGAIAVPKDIVDKWGEQQWENGFLGFPVAEAKEVAGGFIQEFEGGLVVRTKDNKNQWLRGEIAKKYREMKTAESELGFPVSDEIKINGGAFQQFEHGNIYWSAATGAHFIRKGDIFNTWGVKKWEQGELGFPVTDHTQIPAGGEEITFQHGKISQVNGVIREERR | not soluble |
| LSGMTGNQSPAALMSSNIDLLDAITPNVRDALTALFANIACYVLGSIWFRAGVAERIQASAFVSPGKLKNNASKKSGPISQQDLLILASRFVSPTRAYESFSRFSTEAVKSDSWHKAATPELIAHTERLLAGVLGASSASLVMDSVLQGRDLALDEVFSLVDEASSKIMLSQDMLRGAIEHAYEGMSVIDSDLNLVAWNYKYVELYQYPEGFLQQGMPISEVI | not soluble |
| LSPSLPSVEALRNVQLQIPLKVYSEDGKLISEFGEMRRTPIRFADIPQDFIHALLSAEDDNFANHYGVDVKSLMRAAAQLLKSGHIQTGGSTITMQVAKNYFLTNERSFSRKINEILLALQIERQLTKDEILELYVNKIYLGNRAYGIEAAAQVYYGKPIKDLSLAEMAMIAGLPKAPSRYNPLVNPTRSTERRNWILERMLKLGFIDQQRYQAAVEEPINASYHVQTPELNAPYIAEMARAEMVGRYGSEAYTEGYKVITTVRSDLQNAASQSVRDGLIDYDQRHGYRGPETRLPGQTRDAWLKHLGQQRSIGGLEPAIVTQVEKSGIMVMTRDGKEEAVTWDSMKWARPFLSNNSMGPMPRQPADVAQAGDQIRVQRQEDGTLRFVQIPAAQSALISLDPKDGAIRSLVGGFSFEQSNYNRAIQAKRQPGSSFKPFIYSAALDNGFTAASLVNDAPIVFVDEYLDKVWRPKNDTNTFLGPIPLREALYKSRNMVSIRVLQGLGIERAISYITKFGFQRDELPRNFSLALGTATVTPMEIAGAWSVFANGGYKVNPYVIERIESRDGQVLYQANPPRVPVEEQVAADAEDAGNPGDPEHPESAEGEGSIEAQQVAAKAQTTFEPTPAERIIDARTAYIMTSMLQDVIKRGTGRRALALKRTDLAGKTGTTNDSKDGWFSGYNSDYVTSVWVGFDQPETLGRREYGGTVALPIWIRYMGFALKDKPMHTMAEPPGIVSLRIDPVTGRSAAPGTPGAYFEMFKNEDTPPSVNELPPGSFPGSPLPDDEGAPIDL | not soluble |
| LTVHYDLQLYKINYKTQSPDGNLTIASGLVAMPIHPVGQVGIISYQHGTRFERNDVPSRNNEKNYIYLAAYGNSAGYMTVMPDYLGLGDNELTLHPYVQAETLASSSIDMLFAAKELANRLHYPISDKLYLAGYSEGGFSTIVMFEMLAKEYPDLPVSAVAPGSAPYGWEETMHFVMLEPGPRATAYLAYFFYSLQTYKSYWSGFDEIFAPPYNTLIPELMDGYHAVDEILQALPQDPLLIFQPKFSNGIISKTDRNTEILKINFNHYDFKPTAPLLLVGTKGDRDVPYAGAEMAYHSFRKYSDFVWIKSVSDALDHVQAHPFVLKEQVDFFKQFERQE | not soluble |
| LVTISSTSAASLPTMPPSGYDQVRNGVPRGQVVNISYFSTATNSTRPARVYLPPGYSKDKKYSVLYLLHGIGGSENDWFEGGGRANVIADNLIAEGKIKPLIIVTPNTNAAGPGIADGYENFTKDLLNSLIPYIESNYSVYTDREHRAIAGLSMGGGQSFNIGLTNLDKFAYIGPISAAPNTYPNERLFPDGGKAAREKLKLLFIACGTNDSLIGFGQRVHEYCVANNINHVYWLIQGGGHDFNVWKPGLWNFLQMADEAGLTRDGNT | soluble |
| LYLAGIGQYAALLEAGFARARSAEETVRLLVTSYIDWVVANPDWARFILHSRGRVEAGELGERLRADNQAHFARIHAALAGYRAEGLFREMPDDCFASVVIGPAHDLARQWLAGRTRVALADCRELLAQVAWDSVRAA | soluble |
| MAAAAAAKIAPSMLSSDFANLAAEADRMVRLGADWLHMDIMDGHFVPNLTIGAPVIQSLRKHTKAYLDCHLMVTNPSDYVEPLAKAGASGFTFHIEVSRDNWQELIQSIKAKGMRPGVSLRPGTPVEEVFPLVEAENPVELVLVMTVEPGFGGQKFMPEMMEKVRALRKKYPSLDIEVDGGLGPSTIDVAASAGANCIVAGSSIFGAAEPGEVISALRKSVEGSQNKS | soluble |
| MAAAAELSLLEKSLGLSKGNKYSAQGERQIPVLQTNNGPSLMGLTTIAAHLVKQANKEYLLGSTAEEKAMVQQWLEYRVTQVDGHSSKNDIHTLLMDLNSYLEDKVYLTGYNFTLADILLYYGLHRFIVDLTVQEKEKYLNVSRWFCHIQHYPGIRQHLSSVVFIKNRLYTNSH | soluble |
| MAAERLDPWGAVEIKDYDRLLRTFGIRPFSEVLPLLRKAGMEPSFLMRRGIIFGHRDFDKILEAKARGERVAVLTGFMPSGKFHFGHKLTVDQLIYLQKNGFKVFVAIADAEAFAVRRIGREEAVRIAVEEYIANMIALGLDPKDTEFYFQTNRGTPYFRLIQLFSGKVTAAEMEAIYGELTPAKMMASLTQAADILHVQLDEYGGYRHVVVPVGADQDPHLRLTRDLADRMAGVVELERPASTYHKLQPGLDGRKMSSSRPDSTIFLTDPPEVARNKLFRALTGGRATAEEQRRLGGVPEVCSVYHMDLYHLMPDDGEVKHIYTSCRLGKILCGECKQIAWEKLERFLAEHQSRLEKAKTIAWKLVEPPRF | soluble |
